Experimental findings from publication PMC12528321 are described below.

One data set concerns the target T1, NtZFP8 (Nicotiana tabacum, UniProt A0A1S4DEM8 1-256).
T1 sequence: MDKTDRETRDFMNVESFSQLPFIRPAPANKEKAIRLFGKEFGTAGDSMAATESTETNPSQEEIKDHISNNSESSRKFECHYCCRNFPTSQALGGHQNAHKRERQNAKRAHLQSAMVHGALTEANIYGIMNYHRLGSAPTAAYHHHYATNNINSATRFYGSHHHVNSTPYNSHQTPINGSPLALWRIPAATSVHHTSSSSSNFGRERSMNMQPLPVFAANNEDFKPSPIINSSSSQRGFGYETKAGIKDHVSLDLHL
Briefly: EMSA. (In general: A gel shift assay detects complexes by their altered migration in electrophoresis.)

The next data set addresses T2, AmMIXTA (Antirrhinum majus, UniProt Q38739 1-321).
T2 sequence: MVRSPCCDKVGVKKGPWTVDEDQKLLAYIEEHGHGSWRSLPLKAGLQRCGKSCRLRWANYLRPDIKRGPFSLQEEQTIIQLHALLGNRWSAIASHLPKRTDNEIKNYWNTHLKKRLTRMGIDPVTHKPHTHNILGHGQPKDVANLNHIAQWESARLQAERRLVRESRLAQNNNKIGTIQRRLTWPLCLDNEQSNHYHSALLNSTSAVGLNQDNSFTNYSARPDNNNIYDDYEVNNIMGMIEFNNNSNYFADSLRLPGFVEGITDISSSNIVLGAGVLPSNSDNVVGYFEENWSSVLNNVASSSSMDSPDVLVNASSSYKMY
Put plainly: EMSA.

B1: ZFP8_EMSA_Probe (dsDNA)
DNA 1: AGACGGATCCATTGCAATAAGAAGAAGAAGATCCTGTAGGAATTCGGA
DNA 2: TCCGAATTCCTACAGGATCTTCTTCTTCTTATTGCAATGGATCCGTCT
With B1, the binding result with NtZFP8 was “binds”.

B2: MIXTA_EMSA_Probe (dsDNA)
DNA 1: AGACGGATCCATTGCAATAGGTGGTGGTGGATCCTGTAGGAATTCGGA
DNA 2: TCCGAATTCCTACAGGATCCACCACCACCTATTGCAATGGATCCGTCT
For B2, the binding result in the data set with AmMIXTA was “binds”.
